From patent US20150344570A1 (published 2015)
Numbering of substitutions follows the chain as printed. Names and notes keep the numbering of the source.

T1: FcgRIIa R type extracellular domain, C-terminal His tag (human, UniProt P12318 34-217)
T1 construct: extracellular domain; Soluble analyte in Biacore; also called FcγRIIa R; FcγRIIa(R); not shown: His tag at the C terminus
T1 sequence (looked up): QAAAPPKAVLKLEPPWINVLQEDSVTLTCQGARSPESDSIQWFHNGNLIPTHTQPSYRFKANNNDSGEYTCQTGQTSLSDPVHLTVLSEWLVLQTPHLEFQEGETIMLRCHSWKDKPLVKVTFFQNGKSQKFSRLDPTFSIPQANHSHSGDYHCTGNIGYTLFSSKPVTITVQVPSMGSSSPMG

T2: FcgRIIa H type extracellular domain, C-terminal His tag (human, UniProt P12318 34-217)
T2 construct: extracellular domain; Soluble analyte in Biacore; also called FcγRIIa H; FcγRIIa(H); not shown: His tag at the C terminus
T2 sequence (looked up): T1 sequence (looked up) with R134H

T3: FcgRIIb extracellular domain, C-terminal His tag (human, UniProt P31994 43-217)
T3 construct: extracellular domain; Soluble analyte in Biacore; also called FcγRIIb; not shown: His tag at the C terminus
T3 sequence (looked up): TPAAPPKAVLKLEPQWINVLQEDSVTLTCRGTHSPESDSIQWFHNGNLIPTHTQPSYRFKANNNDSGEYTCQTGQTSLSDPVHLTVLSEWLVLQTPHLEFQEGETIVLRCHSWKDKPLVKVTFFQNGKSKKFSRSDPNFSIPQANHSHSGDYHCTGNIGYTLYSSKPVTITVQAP

B1: GpH7-A48/GpH7-B3-01-15Y/GpL16-k0 (antibody, human IgG1, kappa)
heavy 1: QVQLVQSGAEVKKPGASVTVSCKASGYTFTDYEMHWIRQPPGEGLEWIGAIDPKTGDTAYSESFQDRVTLTADKSTSTAYMELSSLTSEDTAVYYCTRFYSYTYWGQGTLVTVSSASTKGPSVFPLAPSSKSTSGGTAALGCLVKDYFPEPVTVSWNSGALTSGVHTFPAVLQSSGLYSLSSVVTVPSSSLGTQTYICNVNHKPSNTKVDKKVEPKSCDKTHTCPPCPAPELLGGPSVFLFPPKPKDTLMISRTPEVTCVVVDVSHEDPEVKFNWYVDGVEVHNAKTKPREEQYNSTYRVVSVLTVLHQDWLNGKEYKCKVSNKALRAPIEKTISKAKGQPREPQVYTLPPSRKELTKNQVSLTCLVKGFYPSDIAVEWESNGQPENNYKTTPPVLDSDGSFFLYSKLTVDKSRWQQGNVFSCSVMHEALHNRYTQKSLSLSP
heavy 2: not shown
light: DIVMTQSPLSLPVTPGEPASISCQASESLVHSNRNTYLHWYLQKPGQSPQLLIYKVSNRFSGVPDRFSGSGSGTDFTLKISRVEAEDVGVYYCSQNTHVPPTFGQGTKVEIERTVAAPSVFIFPPSDEQLKSGTASVVCLLNNFYPREAKVQWKVDNALQSGNSQESVTEQDSKDSTYSLSSTLTLSKADYEKHKVYACEVTHQGLSSPVTKSFNRGEC
notes: H1 P329R; H2 L234Y
B2: GpH7-A5/GpH7-HA5/GpL16-k0 (antibody, human IgG1, kappa)
heavy 1: not shown
heavy 2: B1 heavy 1 with L232Y, K354D, R433H, K437E
light: B1 light
notes: H2 L234Y and P329R
B3: H240-Kn120/H240-Hl068/L73-k0 (antibody, human IgG1, kappa)
heavy 1: QDQLVQSGAEVKKPGASVKVSCKASGFNIKDTYIQWVRQAPGQGLEWMGRIDPLRKQTKYREKFEGRVTITADTSTNTAYMELSSLRSEDTAVYYCVRSGREFDYWGQGTLVTVSSASTKGPSVFPLAPSSKSTSGGTAALGCLVKDYFPEPVTVSWNSGALTSGVHTFPAVLQSSGLYSLSSVVTVPSSSLGTQTYICNVNHKPSNTKVDKKVEPKSCDKTHTCPPCPAPEYYWGPMVFLFPPKPKDTLMISRTPEVTCVVVDVSDEDPEVKFNWYVDGVEVHNAKTKPREEQYNATYRVVSVLTVLHQDWLNGKEYKCKVSNKDLPAPIEKTISKAKGQPREPQVCTLPPSRDELTKNQVSLWCLVKGFYPSDIAVEWESNGQPENNYKTTPPVLDSDGSFFLYSKLTVDKSRWQQGNVFSCSVMHEALHNHYTQKSLSLSP
heavy 2: QDQLVQSGAEVKKPGASVKVSCKASGFNIKDTYIQWVRQAPGQGLEWMGRIDPLRKQTKYREKFEGRVTITADTSTNTAYMELSSLRSEDTAVYYCVRSGREFDYWGQGTLVTVSSASTKGPSVFPLAPSSKSTSGGTAALGCLVKDYFPEPVTVSWNSGALTSGVHTFPAVLQSSGLYSLSSVVTVPSSSLGTQTYICNVNHKPSNTKVDKKVEPKSCDKTHTCPPCPAPELLGGPSVFLFPPKPKDTLMISRTPEVTCVVVDVSHEEPEVKFNWYVDGVEVHNAKTKPREEQYNSTYRVVSVLTVLHQDWLNGKEYKCKVSNDALPKPIEETISKAKGQPREPQVYTLPPSRCELTKNQVSLSCAVKGFYPSDIAVEWESNGQPENNYKTTPPVLDSDGSFFLVSKLTVDKSRWQQGNVFSCSVMHEALHNHYTQKSLSLSP
light: DIQMTQSPSSLSASVGDRVTITCRASQDIHKYIAWYQQKPGQAPRLLIQYTSTLQPGVPSRFSGSGSGTDYTFTISSLQPEDIATYYCLQYEQLRTFGGGTKVEIKRTVAAPSVFIFPPSDEQLKSGTASVVCLLNNFYPREAKVQWKVDNALQSGNSQESVTEQDSKDSTYSLSSTLTLSKADYEKHKVYACEVTHQGLSSPVTKSFNRGEC
notes: Heterodimerized (knobs-into-holes) anti-epiregulin IgG1 antibody; also called H240-Kn120/H240-HI068/L73-k0
B4: H240-Kn120/H240-Hl085/L73-k0 (antibody, human IgG1, kappa)
heavy 1: B3 heavy 1
heavy 2: B3 heavy 2 with G235V
light: B3 light
notes: also called H240-Kn120/H240-HI085/L73-k0
B5: H240-Kn179/H240-Hl068/L73-k0 (antibody, human IgG1, kappa)
heavy 1: B3 heavy 1 with E293K
heavy 2: B3 heavy 2
light: B3 light
notes: also called H240-Kn179/H240-HI068/L73-k0
B6: H240-Kn180/H240-Hl068/L73-k0 (antibody, human IgG1, kappa)
heavy 1: B3 heavy 1 with E293R
heavy 2: B3 heavy 2
light: B3 light
notes: also called H240-Kn180/H240-HI068/L73-k0
B7: H240-Kn120/H240-Hl089/L73-k0 (antibody, human IgG1, kappa)
heavy 1: B3 heavy 1
heavy 2: B3 heavy 2 with G235T
light: B3 light
notes: also called H240-Kn120/H240-HI089/L73-k0
B8: H240-Kn120/H240-Hl073/L73-k0 (antibody, human IgG1, kappa)
heavy 1: B3 heavy 1
heavy 2: B3 heavy 2 with G235S
light: B3 light
notes: also called H240-Kn120/H240-HI073/L73-k0
B9: H240-Kn120/H240-Hl086/L73-k0 (antibody, human IgG1, kappa)
heavy 1: B3 heavy 1
heavy 2: B3 heavy 2 with G235I
light: B3 light
notes: also called H240-Kn120/H240-HI086/L73-k0

Molecular target: FcγRIIIa extracellular domain with C-terminal His tag (human, UniProt P08637 17-208)
Sequence (P08637 17-208): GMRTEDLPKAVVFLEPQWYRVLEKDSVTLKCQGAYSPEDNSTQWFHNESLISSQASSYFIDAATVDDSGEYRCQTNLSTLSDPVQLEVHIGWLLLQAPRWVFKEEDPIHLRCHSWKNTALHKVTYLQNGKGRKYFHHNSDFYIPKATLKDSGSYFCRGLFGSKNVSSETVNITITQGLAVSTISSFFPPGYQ
Experiment: SPR (Biacore), relative binding activity; GpH7-A5/GpH7-B3/GpL16-k0 = 100

FcγRIIIa BINDING ACTIVITY [%]	Binder
11	B1
60	B2

Molecular target: T1, FcgRIIa R type extracellular domain, …
Experiment: SPR (Biacore); KD of H240-Kn120/H240-Hl068/L73-k0 divided by KD of the variant
Procedure: (§1) Analysis of interaction between objective antibody and the FcγR was carried out using Biacore T100 (GE Healthcare), Biacore T200, Biacore A100, and Biacore 4000. HBS-EP+ (GE Healthcare) was used as the running buffer, and the measurement temperature was set to 25° C. Chips produced by immobilizing the antigen peptide by the amine coupling method to a Series S sensor Chip CM5 (GE Healthcare), chips produced by allowing preliminarily biotinylated antigen peptides to interact with and immobilize onto a Series S Sensor Chip SA (certified) (GE Healthcare), chips produced by immobilizing Protein L (ACTIGEN, BioVision) to Series S Sencor Chip CM5 (GE Healthcare), or chips produced by immobilizing Protein A/G (Thermo Scientific) to Series S Sencor Chip CM5 (GE Healthcare) were used. Antibodies of interest were captured onto these chips, and allowed to interact to each FcγR diluted with running buffer. To regenerate and repeatedly use the chip, the antibodies captured onto the chip were washed off by reacting 10 mM glycine-HCl, pH 1.5.

relative KD	Binder
1	B3
1.1	B4
0.8	B5
1	B6
1.4	B7
1.3	B8
0.9	B9

Molecular target: T2, FcgRIIa H type extracellular domain, …
Experiment: as above
Procedure: as §1

relative KD	Binder
1	B3
0.9	B4
1	B5
1.2	B6
1	B7
2	B8
0.8	B9

Molecular target: T3, FcgRIIb extracellular domain, …
Experiment: as above
Procedure: as §1

relative KD	Binder
1	B3
0.4	B4
0.6	B5
0.6	B6
0.8	B7
0.7	B8
0.3	B9

Molecular target: T4, FcgRIIIa F type extracellular domain, C-terminal His tag (human, UniProt P08637 17-208)
T4 construct: extracellular domain; Soluble analyte in Biacore; also called FcγRIIIa F; not shown: His tag at the C terminus
T4 sequence (P08637 17-208): as above
Experiment: as above
Procedure: as §1

relative KD	Binder
1	B3
0.1	B4
0.5	B5
0.7	B6
0.2	B7
0.3	B8
0.1	B9

Molecular target: T5, FcgRIIIa V type extracellular domain, C-terminal His tag (human, UniProt P08637 17-208)
T5 construct: extracellular domain; Soluble analyte in Biacore; also called FcγRIIIa V; not shown: His tag at the C terminus
T5 sequence (P08637 17-208 F176V): as the sequence (P08637 17-208) above, with F160V counted along it
Experiment: as above
Procedure: as §1

relative KD	Binder
1	B3
0.1	B4
0.4	B5
0.5	B6
0.1	B7
0.2	B8
0	B9

Molecular target: T1, FcgRIIa R type extracellular domain, …
Experiment: as above
Remark: another data set of the same source
Procedure: (§2) H240-Kn179/H240-H1089/L73-k0, H240-Kn180/H240-Hl089/L73-k0, H240-Kn192/H240-Hl204/L73-k0, and H240-Kn193/H240-Hl204/L73-k0 were prepared by combining each of H240-Kn192 and H240-Kn193 as an H chain, L73-k0 as the L chain, and H240-Hl089 and H240-Hl204 as the other H chain according to the method described in Reference Example 1. The variants described above were assessed for their binding to FcγR according to the method described in Reference Example 8.
as §1

relative KD	Binder
1	B3
0.8	B5
1	B6
1.4	B7

Molecular target: T2, FcgRIIa H type extracellular domain, …
Experiment: as above
Remark: another data set of the same source
Procedure: as §2, §1

relative KD	Binder
1	B3
1	B5
1.2	B6
1	B7

Molecular target: T3, FcgRIIb extracellular domain, …
Experiment: as above
Remark: another data set of the same source
Procedure: as §2, §1

relative KD	Binder
1	B3
0.6	B5
0.6	B6
0.8	B7

Molecular target: T4, FcgRIIIa F type extracellular domain, …
Experiment: as above
Remark: another data set of the same source
Procedure: as §2, §1

relative KD	Binder
1	B3
0.5	B5
0.7	B6
0.2	B7

Molecular target: T5, FcgRIIIa V type extracellular domain, …
Experiment: as above
Remark: another data set of the same source
Procedure: as §2, §1

relative KD	Binder
1	B3
0.4	B5
0.5	B6
0.1	B7
